Measurements: patent publication US9610371B2, “Anticancer therapy” (STC.UNM, priority 2005, dated 2017)
Read-outs that look alike come from different tables or passages of the source.

Legend:
[1] = Biodistribution in tumor bearing and non-tumor bearing rats; settings: rat, in vivo
Description: FIG. 13: A, B Graphical comparisons of Tumor and Non-Tumor Bearing Rats at 1 hour post injection of ^213Bi-DOTATOC. Columns, means, Bars, SEM, white columns represent non-tumor bearing rats and black columns represent tumor bearing rats. Significance of p<0.05 is represented by a (*).
(§1) For the pathology scoring, to evaluate nephrotoxicity on the 6 treatment groups, a frequency analysis was performed in StatXact-5 using the Jonckheere-Terpstra Test. For all other data, graphs and calculations were performed in SigmaStat®-3 and SigmaPlot®-9 as well as Graph Pad Prism®-4 using the t-test. For all statistical tests results were considered significant when p<0.05. Animal biodistribution and tumor volume data are expressed as the average, plus or minus the SEM.

[2] = as above; settings: rat, in vivo, total radioactivity
[3] = 25 day toxicology in tumor bearing male Lewis rats; assay type: in vivo, Lewis rat; settings: rat, in vivo
Description: Toxicology was assessed at 25 days in 4 groups of tumor bearing male Lewis rats (average volume […]). Rats in the first group, Cohort 1, were injected on day 1 only. Rats in second cohort were injected on days 1 and 2, while rats in the third cohort were injected on days 1, 2, and 3. Rats were injected with 2.56 μg, 0.5 μg, 0.5 μg DOTATOC, on day 1, day 2 and day 3, respectively, with a nominal activity of 3.7 MBq. Each dose was divided into 2 injections at 1 hour intervals. The rats received the following cumulative average activities per group: Cohort 1 (N=3) received 4.3±0.7 MBq, Cohort 2 (N=3) received 9.0±0.4 MBq, and Cohort 3 (N=4) received 12.6±0.3 MBq of ^213Bi-DOTATOC. Cohort 4 (N=4) was added as control group and injected twice daily with unlabelled DOTATOC on three consecutive days.
After 24 days, the animals were put into a metabolic cage to collect urine samples for creatinine clearance analysis. Creatine clearance was determined as previously described (20). After 24 hour urine collection, the animals were euthanized with halothane. For blood collection, a cardiac puncture was performed. Blood analysis consisted of hemoglobin (Hgb), hematocrit (Hct), red blood cells (RBC's), and white blood cells (WBC's) with differential, and platelets (Pt's). Additionally T4 and FSH values were assessed using the serum.
Additional groups were then designed to study the effects of the treatment on a somatostatin receptor positive tumor. The first group was designed to study the effects of treatment on large volume tumors (average volume 1720±608 mm^3). This group, Cohort 5 (N=5), received three fractionated doses of ^213Bi-DOTATOC (specific activity 7.4 MBq ^213Bi/1 μG DOTATOC) with a total average cumulative dose of 13.0±0.5 MBq of ^213Bi-DOTATOC. The last cohort, the sixth cohort (N=4), was injected with two fractionated doses, ^213Bi-DOTATOC (specific activity 7.4 MBq ^213Bi/1 μG DOTATOC) with a total average cumulative dose of 22.2±0.7 MBq of ^213Bi-DOTATOC. As described earlier, each dose was divided into 2 injections separated by a 1 hour interval. Tumor response to the treatment was assessed in all cohorts by daily tumor measurements.
(§2) Organs were harvested and immediately placed in 10% formalin for a minimum of 48 hours. Following fixation in formalin, bone samples were placed in decalcifying solution for 36 hours. Trimmed organs were sent to the TriCore Laboratories (Albuquerque, N. Mex.) where they were embedded in paraffin, sectioned, and stained with Hematoxylin and Eosin (H and E). Histopathologic evaluation was performed by a board certified veterinary pathologist (DFK) who examined the following organs of each animal: heart, lung, kidneys, testicles, spleen, pancreas, pituitary bone marrow, urinary bladder, adrenals, and two different sections of the liver.
(§3) Sections of both the right and left kidneys were examined to determine nephrotoxicity in all cohorts. Bone marrow was examined to evaluate hypoplasia and other lesions in Cohorts 3 and 4. Interstitial nephritis and bone marrow were scored as follows: 0 no lesions, 1 minimal lesions, 2 mild lesions, 3 moderate lesions, and 4 severe lesions.
as §1

[4] = rat, in vivo
Description: A 26 week toxicology study was performed in 3 groups of rats. The first group, Cohort 7 (N=3), received three fractionated doses ^213Bi-DOTATOC (specific activity 7.4 MBq ^213Bi/1 μG DOTATOC with a total average cumulative dose of 12.75±1.1 MBq. The second group, Cohort 8 (N=3), received D-lysine (concentration 400 mg/mL) immediately before receiving three fractionated doses ^213Bi-DOTATOC with a specific activity 7.4 MBq ^213Bi/1 μG DOTATOC with a total average cumulative dose of 11.39±0.14 MBq. The third group, cohort 9 (N=3) received 3 fractionated doses of DOTATOC. Rats were injected with 2.56 μg, 0.5 μg, 0.5 μg DOTATOC, on day 1, day 2 and day 3, respectively. As described earlier, each dose was divided into 2 injections separated by a 1 hour interval.
as §2, §3

C[C@@H](O)[C@@H]1NC(=O)[C@H](CCCCN)NC(=O)[C@@H](Cc2c[nH]c3ccccc23)NC(=O)[C@H](Cc2ccc(O)cc2)NC(=O)[C@@H](NC(=O)[C@@H](Cc2ccccc2)NC(=O)CN2CCN(CC(=O)O)CCN(CC(=O)O)CCN(CC(=O)O)CC2)CSSC[C@@H](C(=O)N[C@H](CO)[C@@H](C)O)NC1=O [^213Bi-DOTATOC, metal not drawn]
localization in stomach and muscle, tumor vs non-tumor bearing rats [1]: significantly higher
tissue uptake at 3 h ([2]; accumulation of radioactivity in the blood): 0.02 %ID/g
tissue uptake at 3 h ([2]; accumulation of radioactivity in the bone marrow): 0.06 ± 0.02 %ID/g
tissue uptake at 3 h ([2]; accumulation of radioactivity in the kidneys): 11.2 ± 0.46 %ID/g
tissue uptake at 3 h ([2]; accumulation of radioactivity in the liver): 0.14 ± 0.02 %ID/g
tissue uptake at 3 h ([2]; accumulation of radioactivity in the spleen): 0.08 ± 0.01 %ID/g
tissue uptake at 3 h ([2]; accumulation of radioactivity in the stomach): 0.08 ± 0.01 %ID/g
tissue uptake at 3 h ([2]; accumulation of radioactivity in the testis): 0.02 %ID/g
FSH values vs control animals [3]: No significant changes
average histopathologic score for nephrititis [3]: 1
hematology results vs control group [3]: did not show any significant differences
histopathological examination of heart, lungs, liver, spleen, urinary bladder [3]: no evidence of treatment induced toxicity
histopathology of testes, adrenals, pancreas [3]: No histopathologic abnormalities
likelihood of interstitial nephrititis with dose [3]: increased with increasing dose
nephrotoxicity with low-dose [3]: minimal nephrotoxicity
toxicity in the high-dose treatment cohort (kidney) [3]: Minimal toxicity
FSH or T4 serum values vs control animals [4]: No significant changes
adrenal histopathology [4]: minimal nodular cortical hyperplasia in both adrenals
creatinine clearance vs control group (DOTATOC only) [4]: No difference
hematology results vs control group [4]: did not show any significant differences
liver histopathology [4]: mild or moderate cholangiohepatitis and perivasculitits
lung histopathology [4]: minimal to mild interstitial pneumonia
microcystic degeneration in the pituitary [4]: mild to moderate
microcystic pancreatic degeneration [4]: mild to moderate
rats with one adrenal each with nodular cortical hyperplasia [4]: 2 rats
